Measured values as given in article PMC12098869, “An mRNA-display derived cyclic peptide scaffold reveals the substrate binding interactions of an N-terminal cysteine oxidase” (Nature Communications, 2025).
Several values for one entry are separate records, joined by “and”; a condition that tells them apart may be missing. Equal values may be shown once. Bridges are numbered along the chain shown (N, C = ends). Where no end group is shown, it is not given here. Side-chain parts run from the residue outwards. [ ]: non-standard residue; d: D form. Dap = NC[C@H](N)C(=O)O

T1: 2-aminoethanethiol dioxygenase (ADO), full-length human, N-terminally His-tagged and biotinylated … (human, UniProt Q96SZ5 1-270, biotin (biotinylated during expression, 0.2 mM biotin added))
T1 construct: 2-aminoethanethiol dioxygenase (ADO), human, UniProt Q96SZ5, full length; Immobilised through its biotin on a Biotin CAP chip for SPR; also called wild type ADO; Biotinylated-ADO; source: E. coli Rosetta2(DE3), purified (Ni-NTA, SEC); not shown: biotinylation tag (from the vector pQE80L-Navi), N-terminal, kept
T1 sequence (looked up): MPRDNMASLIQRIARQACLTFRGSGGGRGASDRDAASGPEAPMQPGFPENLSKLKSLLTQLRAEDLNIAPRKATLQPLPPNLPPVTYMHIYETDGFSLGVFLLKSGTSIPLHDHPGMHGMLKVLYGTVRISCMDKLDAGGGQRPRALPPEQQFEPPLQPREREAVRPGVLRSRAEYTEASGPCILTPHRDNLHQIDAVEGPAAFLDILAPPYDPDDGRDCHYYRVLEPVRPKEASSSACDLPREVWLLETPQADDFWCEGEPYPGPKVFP

T2: 2-aminoethanethiol dioxygenase (ADO), full-length human, N-terminally His-tagged and biotinylated … (human, UniProt Q96SZ5 1-270, biotin (biotinylated during expression, 0.2 mM biotin added))
T2 construct: 2-aminoethanethiol dioxygenase (ADO), human, UniProt Q96SZ5, full length; Construct used for RaPID screening and all SPR experiments; No tag cleavage step is described in its purification; also called wild type ADO; biotinylated ADO; source: E. coli Rosetta2(DE3), purified (Ni-NTA, SEC); not shown: biotinylation tag (from the vector pQE80L-Navi), N-terminal, kept
T2 sequence (looked up): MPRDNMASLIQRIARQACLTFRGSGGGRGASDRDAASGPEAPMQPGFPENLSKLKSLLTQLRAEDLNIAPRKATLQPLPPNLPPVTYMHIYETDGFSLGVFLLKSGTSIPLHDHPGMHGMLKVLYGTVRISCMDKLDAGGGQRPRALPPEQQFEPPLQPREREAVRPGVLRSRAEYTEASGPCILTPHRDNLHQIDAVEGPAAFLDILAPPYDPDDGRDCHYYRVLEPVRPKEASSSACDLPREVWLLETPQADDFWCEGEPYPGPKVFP


Assays:
[1] = target: T1, 2-aminoethanethiol dioxygenase (ADO), …; test: SPR; single-cycle kinetics (1:1 binding model); biotinylated ADO immobilised on a Biotin CAP chip (~2500-3000 RU), cyclic peptide injected; Biacore T200, 4 °C; 20 mM HEPES pH 7.5, 500 mM NaCl, 10 mM DTT, 0.1% tween-20; 50 µL/minute; each cell is one of three independent measurements; conditions: both partners purified
Outline: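 Full-length human ADO carrying a His tag and a biotin label was produced in E. coli and purified first by nickel affinity, then by gel filtration. The protein was loaded onto a Biotin CAP chip in a Biacore T200 to roughly 2500–3000 RU, after which cyclic peptides were passed across the surface at 50 µL/minute and 4 °C in HEPES pH 7.5 buffer containing 500 mM NaCl, DTT and tween-20. Each Kd was obtained by fitting single-cycle kinetic sensorgrams to a 1:1 binding model, based on three independent measurements.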

[2] = target: T2, 2-aminoethanethiol dioxygenase (ADO), …; test: SPR; single cycle kinetic (SCK) analysis, 1:1 binding model; biotinylated ADO immobilised on a Biotin CAP chip (~2500-3000 RU), cyclic peptides injected; 4 °C; 20 mM HEPES pH 7.5, 500 mM NaCl, 10 mM DTT, 0.1% tween-20; 50 μL/minute; conditions: both partners purified
[3] = target: T2, 2-aminoethanethiol dioxygenase (ADO), …; test: cell-based or functional assay

Binder	Kd [1]	Kd [2] [nM]	IC50 of inhibition of ADO activity (oxidation of RGS5_(2-15), LCMS) [3] [nM]
{CH2CO}-YIVKTFW[Dap]([Gly-Ser])GSHRQC (thioether N-14) [CP6-L8d-Gly-Ser]	154 nM and 144 nM and 145 nM		
{CH2CO}-YIVKTFWLGSHRQC-NH2 (thioether N-14; SMILES CC[C@H](C)[C@@H]1NC(=O)[C@H](Cc2ccc(O)cc2)NC(=O)CSC[C@@H](C(N)=O)NC(=O)[C@H](CCC(N)=O)NC(=O)[C@H](CCCNC(=N)N)NC(=O)[C@H](Cc2c[nH]cn2)NC(=O)[C@H](CO)NC(=O)CNC(=O)[C@H](CC(C)C)NC(=O)[C@H](Cc2c[nH]c3ccccc23)NC(=O)[C@H](Cc2ccccc2)NC(=O)[C@H]([C@@H](C)O)NC(=O)[C@H](CCCCN)NC(=O)[C@H](C(C)C)NC1=O, cyclic peptide selected against ADO by RaPID mRNA display; also called unmodified CP6; source: synthetic peptide (solid-phase peptide synthesis)) [cyclic peptide CP6]		66	950
{CH2CO}-YRIIRVFRSWVLCPC (thioether N-13, cyclic peptide selected against ADO by RaPID mRNA display; source: synthetic peptide (solid-phase peptide synthesis)) [cyclic peptide CP2]		> 5000	> 50000
{CH2CO}-YWTLNEGFPRRGRLC (thioether N-15, cyclic peptide selected against ADO by RaPID mRNA display; source: synthetic peptide (solid-phase peptide synthesis)) [cyclic peptide CP3]		> 5000	
{CH2CO}-YYYVLGTILVKRYRFC (thioether N-16, cyclic peptide selected against ADO by RaPID mRNA display; source: synthetic peptide (solid-phase peptide synthesis)) [cyclic peptide CP4]			> 50000
{CH2CO}-YIVKTFW[Dap]([Lys-Ser])GSHRQC (thioether N-14) [CP6-L8d-Lys-Ser]	461 nM and 530 nM and 472 nM		
{CH2CO}-YTYRYPSILRVWARYGC (thioether N-17, cyclic peptide selected against ADO by RaPID mRNA display; source: synthetic peptide (solid-phase peptide synthesis)) [cyclic peptide CP8]		4.7	1730
{CH2CO}-YITITSWLGTLRQC (thioether N-14, cyclic peptide selected against ADO by RaPID mRNA display; source: synthetic peptide (solid-phase peptide synthesis)) [cyclic peptide CP5]		40	5680
{CH2CO}-YIVKTFW[Dap]([Phe-Ser])GSHRQC (thioether N-14) [CP6-L8d-Phe-Ser]	79.9 nM and 77.7 nM and 78.1 nM		
